Substitutions are numbered along the chain they refer to.
Legend:
[1] = target: T1, SmD1s (Sm fold);SmD2;SmF;SmE;SmG;SmD3 (Sm fold);SmB (Sm fold) (human;human;human;human;human;human;huma …, UniProt P62314;P62316;P62306;P62304;P62308;P62318;P14678 …, del83-119||||||); assay: GFC/SDS-PAGE; 7SΔN + SmD3/B input; complete core, Gemin2ΔN39/SMNGe2BD released; EMSA: 20 mM Tris-HCl pH 8.0, 250 mM NaCl, 2 mM MgCl2, 1 mM EDTA, 1 mM DTT, 37 C 40 min, RNA 50 pM and complex 2.5-10 pM as printed; GFC assembly assay conditions not in the material; conditions: protein: recombinant;recombinant;recombinant;recombinant;recombinant;recombinant;recombinant; copies: 1;1;1;1;1;1;1; stem-loops flank the Sm site
[2] = target: T1, SmD1s (Sm fold);SmD2;SmF;SmE;SmG;SmD3 …; assay: GFC/SDS-PAGE; 7SΔN + SmD3/B input; core formation to completion; EMSA: 20 mM Tris-HCl pH 8.0, 250 mM NaCl, 2 mM MgCl2, 1 mM EDTA, 1 mM DTT, 37 C 40 min, RNA 50 pM and complex 2.5-10 pM as printed; GFC assembly assay conditions not in the material; conditions: protein: recombinant;recombinant;recombinant;recombinant;recombinant;recombinant;recombinant; copies: 1;1;1;1;1;1;1; stem-loops; 3 nt spacer 5' of Sm site
[3] = target: T2, SmD1s (Sm fold);SmD2;SmF;SmE;SmG;Gemin2ΔN39;SMNGe2BD (human;human;human;human;human;human;huma …, UniProt P62314;P62316;P62306;P62304;P62308;O14893;Q16637 …, del83-119|||||del1-39|); assay: EMSA; 7SΔN; Sm subcore formed; EMSA: 20 mM Tris-HCl pH 8.0, 250 mM NaCl, 2 mM MgCl2, 1 mM EDTA, 1 mM DTT, 37 C 40 min, RNA 50 pM and complex 2.5-10 pM as printed; GFC assembly assay conditions not in the material; conditions: protein: recombinant;recombinant;recombinant;recombinant;recombinant;recombinant;recombinant; copies: 1;1;1;1;1;1;1; 5' and 3' stem-loops flank the Sm site
[4] = target: T2, SmD1s (Sm …); assay: GFC/SDS-PAGE; 7SΔN; EMSA: 20 mM Tris-HCl pH 8.0, 250 mM NaCl, 2 mM MgCl2, 1 mM EDTA, 1 mM DTT, 37 C 40 min, RNA 50 pM and complex 2.5-10 pM as printed; GFC assembly assay conditions not in the material; conditions: protein: recombinant;recombinant;recombinant;recombinant;recombinant;recombinant;recombinant, copies: 1;1;1;1;1;1;1
[5] = target: T3, SmD1;SmD2;SmF;SmE;SmG (human;human;human;human;human, UniProt P62314;P62316;P62306;P62304;P62308 1-119;1-118;1-86;1-92;1-76, ||||); assay: GFC; 5Sm without Gemin2; EMSA: 20 mM Tris-HCl pH 8.0, 250 mM NaCl, 2 mM MgCl2, 1 mM EDTA, 1 mM DTT, 37 C 40 min, RNA 50 pM and complex 2.5-10 pM as printed; GFC assembly assay conditions not in the material; conditions: protein: recombinant;recombinant;recombinant;recombinant;recombinant, copies: 1;1;1;1;1
[6] = target: T2, SmD1s (Sm …); assay: GFC/SDS-PAGE; 7SΔN; Gemin2 starts to be released; EMSA: 20 mM Tris-HCl pH 8.0, 250 mM NaCl, 2 mM MgCl2, 1 mM EDTA, 1 mM DTT, 37 C 40 min, RNA 50 pM and complex 2.5-10 pM as printed; GFC assembly assay conditions not in the material; conditions: protein: recombinant;recombinant;recombinant;recombinant;recombinant;recombinant;recombinant; copies: 1;1;1;1;1;1;1; 3' stem-loop
[7] = target: T2, SmD1s (Sm …); assay: GFC; 7SΔN; EMSA: 20 mM Tris-HCl pH 8.0, 250 mM NaCl, 2 mM MgCl2, 1 mM EDTA, 1 mM DTT, 37 C 40 min, RNA 50 pM and complex 2.5-10 pM as printed; GFC assembly assay conditions not in the material; conditions: protein: recombinant;recombinant;recombinant;recombinant;recombinant;recombinant;recombinant; copies: 1;1;1;1;1;1;1; single-stranded
[8] = target: T3, SmD1;SmD2;SmF;SmE;SmG; assay: GFC/SDS-PAGE; 5Sm without Gemin2; EMSA: 20 mM Tris-HCl pH 8.0, 250 mM NaCl, 2 mM MgCl2, 1 mM EDTA, 1 mM DTT, 37 C 40 min, RNA 50 pM and complex 2.5-10 pM as printed; GFC assembly assay conditions not in the material; conditions: protein: recombinant;recombinant;recombinant;recombinant;recombinant; copies: 1;1;1;1;1

B1: flU4 (structured_RNA)
RNA: GGGCAGCUUUGCGCAGUGGCAGUAUCGUAGCCAAUGAGGUCUAUCCGAGGCGCGAUUAUUGCUAAUUGAAAACUUUUCCCAAUACCCCGCCGUGACGACUUGCAAUAUAGUCGGCACUGGCAAUUUUUGACAGUCUCUACGGAGACUG
- binding result [1]: binds

B2: flU4-spacer (structured_RNA)
RNA: B1 RNA with G119C, G120C, C121G
- binding result [2]: binds

B3: U4 (structured_RNA)
RNA: GGGAAUUGAAAACUUUUCCCAAUACCCCGCCGUGACGACUUGCAAUAUAGUCGGCACUGGCAAUUUUUGACAGUCUCUACGGAGACUG
- binding signal [3]: ~2 fold vs 7S

B4: U4ΔSm (structured_RNA)
RNA: B3 RNA with U64C, U65C, U66C, U67C, U68C
- binding result ([4]; 5' and 3' stem-loops): no binding

Binder: AAUUUUUGA (ssRNA) [9nt Sm site]
- binding result ([5]; single-stranded): binds

B5: U4-3'Δ (structured_RNA)
RNA: GGGAAUUGAAAACUUUUCCCAAUACCCCGCCGUGACGACUUGCAAUAUAGUCGGCACUGGCAAUUUUUGAC
- binding result ([4]; 5' stem-loop): no binding

B6: U4-5'ss (structured_RNA)
RNA: GGGAAUUGAAAACUUUUCCCAAUACCCCAAUUUUUGACAGUCUCUACGGAGACUG
- binding result ([5]; 3' stem-loop): binds
- binding result [6]: binds

Binder: GGCAAUUUUUGACAGUCUCUACGCUCUGAC (ssRNA) [U4-5'Δ-3'ss]
- binding result [7]: binds

Binder: GGGAAUUGAAAACUUUUCCCAAUACCCCAAUUUUUGA (ssRNA) [3'Sm]
- binding result [8]: binds
- binding result [4]: no binding

Binder: GGCAAUUUUUGACAGUCUCUACGGAGACUG (structured_RNA) [U4-5'Δ]
- binding result ([5]; 3' stem-loop): binds
